Reference: publication PMC12667520, “SP3 and DEP1 Orchestrate Panicle Architecture by Jointly Regulating APO2 Expression in Rice”

T1: SP3 (Dof15) (Oryza sativa)
T1 chain: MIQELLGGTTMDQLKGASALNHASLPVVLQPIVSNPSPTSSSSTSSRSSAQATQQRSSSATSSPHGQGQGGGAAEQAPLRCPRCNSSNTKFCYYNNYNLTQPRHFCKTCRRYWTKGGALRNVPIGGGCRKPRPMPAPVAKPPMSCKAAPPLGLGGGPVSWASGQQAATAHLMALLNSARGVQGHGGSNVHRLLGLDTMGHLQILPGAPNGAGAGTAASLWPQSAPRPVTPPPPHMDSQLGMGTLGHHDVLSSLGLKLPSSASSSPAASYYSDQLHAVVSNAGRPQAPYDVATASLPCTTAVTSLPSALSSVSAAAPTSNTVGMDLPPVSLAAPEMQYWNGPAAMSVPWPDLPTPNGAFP

T2: DEP1 (Oryza sativa, UniProt Q67UU9 1-426)
T2 sequence: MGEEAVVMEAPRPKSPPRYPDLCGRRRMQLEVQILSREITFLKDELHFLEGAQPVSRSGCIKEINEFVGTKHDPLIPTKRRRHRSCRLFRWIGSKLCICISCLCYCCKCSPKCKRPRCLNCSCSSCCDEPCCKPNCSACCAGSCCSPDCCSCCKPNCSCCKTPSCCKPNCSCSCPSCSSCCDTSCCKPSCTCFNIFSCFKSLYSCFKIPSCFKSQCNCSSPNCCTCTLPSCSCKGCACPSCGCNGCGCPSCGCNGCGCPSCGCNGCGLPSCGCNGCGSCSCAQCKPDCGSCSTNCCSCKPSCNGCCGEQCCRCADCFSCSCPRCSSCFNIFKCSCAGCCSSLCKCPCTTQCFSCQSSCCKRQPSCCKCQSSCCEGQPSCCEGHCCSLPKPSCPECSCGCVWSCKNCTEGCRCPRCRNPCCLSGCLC


Key:
[1] = molecular target: FLAG-DEP1 (rice (Oryza sativa)) (UniProt Q67UU9)
SP3 (Dof15) = molecular target: T1, SP3 (Dof15); assay: EMSA; LightShift Chemiluminescent EMSA Kit (Thermo), manufacturer's instructions; buffer, salt, pH and temperature not stated; conditions: protein: recombinant; tags: GST (pGEX-6p); label: biotin; blunt
DEP1 = molecular target: T2, DEP1; assay: as above; conditions: protein: recombinant; tags: MBP; label: biotin; blunt

share of DEP1-GFP signals localised to the nucleus in rice protoplasts: 16% without SP3, 76% with SP3-HA co-expressed [1] [%]	Molecule	binding result (SP3 (Dof15))	binding result (DEP1)
76	HA-SP3 (natural protein)		
	Bio-Probe (APO2 promoter) (dsDNA) DNA 1: ACGCATGCAGGAGTATCTTTTTTCTTCGGAAGAGGAACAGTGAC DNA 2: GTCACTGTTCCTCTTCCGAAGAAAAAAGATACTCCTGCATGCGT	binds	no binding
